The domain aggregation screens of Martell et al. (2025)

Test: soluble fraction after stress (log2 fold change); higher = more stays soluble; pooled small domains, quantitative proteomics
Details: stress: 75 degC
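Note: 20 min heating vs room temperature control held 20 min.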

Sequence | soluble fraction (log2)
HMPDPHSEARNIVLNQLNFMPRSRKELETALAKRNIEADVAKIVLDRFEEIGMVDDAAYAEL | 0.121
HMPDPLYLINGKIVNKSDFNNIDPRSIQSIEVLKANKALEAFGNDGKNGVIKITLKSSNDQM | -0.104
HMPEEGPSEDGNSFTAKFKLGSDVQGAMEQADAAAKAGLQDAGKGTGQITSRAQVGGYIYSTATA | 0.142
HMPEIFYRKIHRTDHDQIALDAEMIRLLIAIDEKKSLSQIAAEVQMEPMALKKNLGKLIQLGLVEPIK | -0.616
HMPELSNNLDRDKVALKNFNESLKDGLTPAEAYANHLTNVSKAAQEAARQSNGLPVDIDKYHNSQLAASMA | 0.378
HMPEMAIRTLRLRNQRGAAVAAEWSRITASLLELRQVEFVNPVDQLIVLKGPEPWAGVAEELVRQLDV | -2.55
HMPEQLLNTRIPLEFAGRRFDASLAELFPDYSRSRLAAWIKDGAARLDGETVAPRHTVRGGEQVEILVRM | -0.729
HMPERLTYVHPDGAEPMRADKALAAFLSGRISRSRLLGSFSAGKVMAGGKPVEKKLLLRAGDALEVELPEP | -0.239
HMPERMLEPLLNGNEIMKVTQLQPGPKVGLIRDALLQAQISGDVTDTESAKAFVQDYAKRNI | 0.0453
HMPESETIMVDVKGAVQSEGVYELPSTARVNDAIEAAGGFSDQADKKSVNLAQKLSDEAVVYVASQGENV | 0.76
HMPEVTMSYSARNQVVSFSKATQYEIVDEFGTVVLRGVGNQATLRYLSRGDYFVNFGAGTEVLKK | -0.0464
HMPEVYSFEVNEGAAGKRLDIFLSGEIEGLTRSFIQKLISEGMATVNQEPPRASYRVKTRDLVELQIPDPE | -0.334
HMPFDWSAFDWKGWADEALAIIKTANQDQMNKWTEDNEKIIVQAETAAPDIYKTVGDEYDKKMESFN | 0.0145
HMPFESEMKHWIHLFAHELNLKVSDKYTQKIIEIFGNNFSEIFNEMSKSSLVSSNEKDLLNALEKSGNIH | -0.799
HMPFGIYGGKVSSLDDLKDKAAVLVPNDVSNEARALLLLEAQGLIKLKEGVGLEATRNDIVEN | ≥ 1.04
HMPFTLDGVNEGSRNDQAARMSGYLISKNLNMDFIKFFMQSWNRQNSPPLSQREINSVVDNVKRTHDRKNK | -1.88
HMPGKVSDAGATAKDNRLFLEAVFWRVRTGSPWRDLPPAFGHWNSQFRRFRRWAKAGVFESLFNA | 0.182
HMPGRKKLAIIYKNDYIGAFNLADSYRDSYEVSMYAFPKKVGKLLNRLELQGFNAYVIYDKDNEENNFNTI | -1.82
HMPGSGELSRRLELAIRDRTAVRVTAAAAGQERSFTLLPVAITSGRLRATDEQAGVQRTLPLSAIVAVEA | -0.179

Sequence | soluble fraction (log2)
HMPGTEAQDGEVLLDALRRIHPDSSTGTLRRMLTQGRVQVDGTTVHAAKAELTSGQHVEVVAR | 0.136
HMPIDIEPVLQWIRDNSIDGIGPARSMYHSAAAAAGLPSYSSLQLRKWTWPLLLDAAGVQRR | -0.427
HMPIRMLQVQKTNTGYLNVRDTPSVSGALIGKVFPGDMLSSTEERDGWFLVAVPQGGTGWVSGDYVKTTS | -0.191
HMPKAPHETLSRREMEVLLLLSEGVTLTRIGDTIHVSVKTVSTYRARILQKLDLQSNAELTRYVLQHKL | -5.8
HMPKHDWDAFAGAIARRVHDHGMPVSQGELVRDMMDWFAGRKDFPPPDERTVRRKVSAIWRELNG | -1.38
HMPKIPRLTLTETAGIMGVSQRALALAIQQGMYSWAQALPGRNKKRPIYFINAITFAKAQGIDLEEYK | -1.13
HMPKKLIWERTTSKLQLYITQDRYELKTPLMTIPFTSKSKMMVYLQQRYHLDMQEYRQIYDAG | -2.28
HMPKMDGLTVMEQVNQDHFVNKRPYFIVITAVGQEKITEDAFNKGANYYVMKPFNNNMLLERIKSVRK | 0.642
HMPKYLNIYHELAQRIQEGALPAETKLPSETELMQEFEASRGTVRKAIDALQEKGFVRKHQGKGVFVLSQ | -0.00712
HMPLDYNELRSISPKAARQAILQILAANKGNVSATAKLLGVSRKTVYKAMHKKASGNLDDTSRAPK | -1.74
HMPLITAIELDSISARSFQFNTQSGSTYFIEGSTDLKSWDVIAEVKATDSTTTYEDHRKIYHEAYFYRVRL | -1.84
HMPLITDIKIQVKNTEKVSLFVDGKYSFSLTISQLAEHKILKTNQEISAKQVAEFKKLSNLTNLYIRIVG | -0.305
HMPLITLSAEIQSEQIGQRLDQTLAELFPEYSRSRLKTWIEADLVKLNNQIVNIPREKVLGGEHVEITVDI | -1.09
HMPLNRFLNLPHEDKERVLLIAKKQFSTHGYDAMSLNLLLKELDISKGQFYYWFEDKADLFFTVL | -0.11
HMPLRPNQRQFIHLMVYQGLDRNEAYAQANNKVLTEENYESIRTAAAKTFYTPHVNNYYHALMEEIRDRE | -0.471
HMPLSVRQRMSDILSNLKTSDFTNFADLFDPKEGRTGITVTFIAILELLREFLIEVVQSDHYQPLHVRAAS | -0.213
HMPLTAASLQTYLRGVDYPASKQDLIAHARKSDAPEDAITVLEQYSEQTYRSAADVSAEFGS | 0.109
HMPLTEMAVRKHLSAELAQKGYTIDPRALEILLQRTNTNLTAIANELPKLLLVAEDKQITVNEVSAM | -0.319
HMPLTKKLETLFSLFPKYEKELKKKGVTRIHVWANYKEEYPDGIGRSQFIHYYSFWKKQVSP | -0.154
